The target of this experiment is Russell's viper venom factor V activator (Russell's viper, Natural, unmodified enzyme purified from Indian Russell's viper venom. The isoform (alpha or gamma) is not stated; gamma is assumed because the paper models RVV-V with PDB 3S9C. The candidate entry is). The experiment can be described thus: SPR; Biacore T200; RVV-V immobilised on a CM5 chip by amine coupling (3000 RU); peptides flowed over at 62.5 uM to 1 mM in PBS, 30 ul/min; association 120 s, dissociation 300 s; regeneration 10 mM glycine pH 2.5; two-state binding model. As to conditions: both partners purified. For orientation: SPR reads the build-up and loss of mass on a sensor chip optically.

The values below come from publication PMC5521794, “Understanding Russell’s viper venom factor V activator’s substrate specificity by surface plasmon resonance and in-silico studies” (PLoS ONE, 2017).

By Kd is commonly meant the equilibrium constant for the complex coming apart. The low end stands for tighter binding, the high end for weaker binding.

B1: Peptide II (factor V cleavage site II, Lys1008-Pro1022) (peptide)
peptide: KHTHHAPLSPRTFHP
notes: also called site II peptide; source: synthetic peptide; bought: Genei
Consider B1, for which the Kd was 2780 µM.
